The source of these data is publication PMC3873296, “Crystal Structures and Molecular Dynamics Simulations of Thermophilic Malate Dehydrogenase Reveal Critical Loop Motion for Co-Substrate Binding” (PLoS ONE, 2013).

In data set [1] the target is T1, TtMDH (malate dehydrogenase from Thermus thermophilus) (Thermus thermophilus, UniProt P10584).
T1 construct: gene mdh
T1 sequence (P10584 1-327): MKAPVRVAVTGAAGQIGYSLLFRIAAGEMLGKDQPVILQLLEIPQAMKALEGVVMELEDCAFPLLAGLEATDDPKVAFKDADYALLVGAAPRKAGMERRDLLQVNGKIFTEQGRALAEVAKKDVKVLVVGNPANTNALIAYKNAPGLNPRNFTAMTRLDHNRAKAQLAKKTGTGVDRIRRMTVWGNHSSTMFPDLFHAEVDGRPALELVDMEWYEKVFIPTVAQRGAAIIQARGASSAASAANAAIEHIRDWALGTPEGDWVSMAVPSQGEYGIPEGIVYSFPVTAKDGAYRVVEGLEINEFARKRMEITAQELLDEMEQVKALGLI
In words: X-ray crystal structure, […] Å. It counts as binding. As to conditions: apo crystal soaked with 2 mM NAD for about 30 min.

Data set [2] deals with T1, TtMDH (malate dehydrogenase from Thermus thermophilus). In words: isothermal titration calorimetry. It counts as binding. An excerpt:
isothermal titration calorimetry on TtMDH (malate dehydrogenase from Thermus thermophilus)

Substrate in data set [3]: O=C(O)CC(=O)C(=O)O
In words: purified protein. As to conditions: 0.15 mM NADH, 100 mM glycine-NaOH pH 10.0, 37 °C. The class given is biochemical, Thermus thermophilus.

Data set [4] concerns the molecule itself. In words: SEC; analytical gel filtration on Superdex 200 HR; 0.1 ml TtMDH at 8.8 mg/ml; elution compared with high-molecular-weight standards; estimated mass 61 kDa against 37 kDa for the subunit.

On to `NC(=O)c1ccc[n+]([C@@H]2O[C@H](COP(=O)(O)OP(=O)(O)OC[C@H]3O[C@@H](n4cnc5c(N)ncnc54)[C@H](O)[C@@H]3O)[C@@H](O)[C@H]2O)c1` [NAD], for which the “X-ray crystal structure, 2.36 Å” value in data set [1] is listed as “co-substrate binding site of TtMDH that could be modeled as NAD”.

With `NC(=O)C1=CN([C@@H]2O[C@H](COP(=O)(O)OP(=O)(O)OC[C@H]3O[C@@H](n4cnc5c(N)ncnc54)[C@H](O)[C@@H]3O)[C@@H](O)[C@H]2O)C=CC1` [NADH], the affinity in data set [2], expressed as Kd, was 1160 nM.

B1: Malate dehydrogenase from Thermus thermophilus (enzyme, UniProt P61977 1-327, looked up)
chain: MKAPVRVAVTGAAGQIGYSLLFRIAAGEMLGKDQPVILQLLEIPQAMKALEGVVMELEDCAFPLLAGLEATDDPKVAFKDADYALLVGAAPRKAGMERRDLLQVNGKIFTEQGRALAEVAKKDVKVLVVGNPANTNALIAYKNAPGLNPRNFTAMTRLDHNRAKAQLAKKTGTGVDRIRRMTVWGNHSSTMFPDLFHAEVDGRPALELVDMEWYEKVFIPTVAQRGAAIIQARGASSAASAANAAIEHIRDWALGTPEGDWVSMAVPSQGEYGIPEGIVYSFPVTAKDGAYRVVEGLEINEFARKRMEITAQELLDEMEQVKALGLI
notes: Malate dehydrogenase (EC 1.1.1.37) of Thermus thermophilus; calculated mass of the recombinant protein 36874.48 Da; also called TtMDH; MDH; source: E. coli BL21(DE3), purified (heat incubation at 70°C, Ni2+-NTA, Superdex 200 HR gel filtration)
For the molecule B1, in data set [3], the Km came out at 168.1 µM and the kcat was found to be 281.6 s⁻¹. In addition, the “stoichiometry N” value in data set [4] is 2.
